Measurements as given in the supplement of paper PMC5998384.

What was measured:
HeLa Kyoto [1] = assay: solubility in G1/S (NP-40 vs SDS abundance) (log2 ratio); higher = more soluble; details: cell cycle stage: G1/S
HeLa Kyoto [2] = assay: thermal stability score vs G1/S (z-score of summed log2 fold changes over temperatures); higher = more thermally stable than in G1/S
HeLa Kyoto [3] = assay: solubility change mitosis vs G1/S (difference of NP-40 vs SDS log2 ratios) (log2 ratio difference); higher = more soluble in mitosis
HeLa Kyoto [4] = assay: melting temperature (median over replicates), in situ; higher = more thermally stable
[5] = cell cycle stage: early G1 (4.5 h after nocodazole release)
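Wherever melting temperature (median over replicates), in situ is given: HeLa Kyoto cells synchronized by double thymidine or nocodazole block, proteins quantified by TMT10plex mass spectrometry, three independent biological replicates.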
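Wherever solubility change mitosis vs G1/S (difference of NP-40 vs SDS log2 ratios) is given: synchronized HeLa Kyoto cells (double thymidine block for G1/S, nocodazole release for mitosis), protein amounts in NP-40 versus SDS lysates quantified by mass spectrometry, three biological replicates.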
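Wherever solubility in G1/S (NP-40 vs SDS abundance) is given: HeLa Kyoto cells arrested at G1/S by double thymidine block, proteins quantified by TMT10plex mass spectrometry in mild NP-40 versus SDS extracts, three biological replicates.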
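Wherever thermal stability score vs G1/S (z-score of summed log2 fold changes over temperatures) is given: synchronized HeLa Kyoto cells, proteins quantified by TMT10plex mass spectrometry, three biological replicates, mitosis taken 0.5 h after nocodazole release, G1/S directly after double thymidine block.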

Substance | solubility in G1/S (log2) (HeLa Kyoto [1]) | thermal stability score (HeLa Kyoto [2]; [5]) | thermal stability score (HeLa Kyoto [2]; cell cycle stage: mitosis) | solubility change mitosis (log2) (HeLa Kyoto [3]) | melting temperature (HeLa Kyoto [4]; cell cycle stage: G1/S) | melting temperature (HeLa Kyoto [4]; cell cycle stage: mitosis)
MDPTAGSKKEPGGGAATEEGVNRIAVPKPPSIEEFSIVKPISRGAFGKVYLGQKGGKLYAVKVVKKADMINKNMTHQVQAERDALALSKSPFIVHLYYSLQSANNVYLVMEYLIGGDVKSLLHIYGYFDEEMAVKYISEVALALDYLHRHGIIHRDLKPDNMLISNEGHIKLTDFGLSKVTLNRDINMMDILTTPSMAKPRQDYSRTPGQVLSLISSLGFNTPIAEKNQDPANILSACLSETSQLSQGLVCPMSVDQKDTTPYSSKLLKSCLETVASNPGMPVKCLTSNLLQSRKRLATSSASSQSHTFISSVESECHSSPKWEKDCQESDEALGPTMMSWNAVEKLCAKSANAIETKGFNKKDLELALSPIHNSSALPTTGRSCVNLAKKCFSGEVSWEAVELDVNNINMDTDTSQLGFHQSNQWAVDSGGISEEHLGKRSLKRNFELVDSSPCKKIIQNKKTCVEYKHNEMTNCYTNQNTGLTVEVQDLKLSVHKSQQNDCANKENIVNSFTDKQQTPEKLPIPMIAKNLMCELDEDCEKNSKRDYLSSSFLCSDDDRASKNISMNSDSSFPGISIMESPLESQPLDSDRSIKESSFEESNIEDPLIVTPDCQEKTSPKGVENPAVQESNQKMLGPPLEVLKTLASKRNAVAFRSFNSHINASNNSEPSRMNMTSLDAMDISCAYSGSYPMAITPTQKRRSCMPHQQTPNQIKSGTPYRTPKSVRRGVAPVDDGRILGTPDYLAPELLLGRAHGPAVDWWALGVCLFEFLTGIPPFNDETPQQVFQNILKRDIPWPEGEEKLSDNAQSAVEILLTIDDTKRAGMKELKRHPLFSDVDWENLQHQTMPFIPQPDDETDTSYFEARNTAQHLTVSGFSL [MASTL] | 0.0696 | 2.99 | 5.64 | -0.0152 | 48.4 °C | 50.5 °C
MAAPEEHDSPTEASQPIVEEEETKTFKDLGVTDVLCEACDQLGWTKPTKIQIEAIPLALQGRDIIGLAETGSGKTGAFALPILNALLETPQRLFALVLTPTRELAFQISEQFEALGSSIGVQSAVIVGGIDSMSQSLALAKKPHIIIATPGRLIDHLENTKGFNLRALKYLVMDEADRILNMDFETEVDKILKVIPRDRKTFLFSATMTKKVQKLQRAALKNPVKCAVSSKYQTVEKLQQYYIFIPSKFKDTYLVYILNELAGNSFMIFCSTCNNTQRTALLLRNLGFTAIPLHGQMSQSKRLGSLNKFKAKARSILLATDVASRGLDIPHVDVVVNFDIPTHSKDYIHRVGRTARAGRSGKAITFVTQYDVELFQRIEHLIGKKLPGFPTQDDEVMMLTERVAEAQRFARMELREHGEKKKRSREDAGDNDDTEGAIGVRNKVAGGKMKKRKGR [DDX47] | -1.22 | 0.865 | 1.97 | 0.607 | 50.9 °C | 51.3 °C
UGGT1 | -0.0908 | 3.04 | 4.09 | -0.156 | 54.2 °C | 55 °C
MAQRMTTQLLLLLVWVAVVGEAQTRIAWARTELLNVCMNAKHHKEKPGPEDKLHEQCRPWRKNACCSTNTSQEAHKDVSYLYRFNWNHCGEMAPACKRHFIQDTCLYECSPNLGPWIQQVDQSWRKERVLNVPLCKEDCEQWWEDCRTSYTCKSNWHKGWNWTSGFNKCAVGAACQPFHFYFPTPTVLCNEIWTHSYKVSNYSRGSGRCIQMWFDPAQGNPNEEVARFYAAAMSGAGPWAAWPFLLSLALMLLWLLS [FOLR1] | -0.325 | -1.06 | -1.43 | 0.0281 | 58.8 °C | –
MEYMAESTDRSPGHILCCECGVPISPNPANICVACLRSKVDISQGIPKQVSISFCKQCQRYFQPPGTWIQCALESRELLALCLKKIKAPLSKVRLVDAGFVWTEPHSKRLKVKLTIQKEVMNGAILQQVFVVDYVVQSQMCGDCHRVEAKDFWKAVIQVRQKTLHKKTFYYLEQLILKYGMHQNTLRIKEIHDGLDFYYSSKQHAQKMVEFLQCTVPCRYKASQRLISQDIHSNTYNYKSTFSVEIVPICKDNVVCLSPKLAQSLGNMNQICVCIRVTSAIHLIDPNTLQVADIDGSTFWSHPFNSLCHPKQLEEFIVMECSIVQDIKRAAGAGMISKKHTLGEVWVQKTSEMNTDKQYFCRTHLGHLLNPGDLVLGFDLANCNLNDEHVNKMNSDRVPDVVLIKKSYDRTKRQRRRNWKLKELARERENMDTDDERQYQDFLEDLEEDEAIRKNVNIYRDSAIPVESDTDDEGAPRISLAEMLEDLHISQDATGEEGASMLT [NMD3] | -0.119 | -1.14 | -1.18 | -0.0927 | 52.2 °C | 52.2 °C
